From the supplement of paper PMC10567573
± gives the standard deviation.

Assay: protein stability index of a GFP-peptide fusion (GPS, HEK-293T) (PSI 1-6); higher = more stable
[1] = treatment: DMSO, c terminus: a fixed tail appended
[2] = treatment: MLN4924 1 uM, 8 h, c terminus: a fixed tail appended
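Also: 24-mer peptide tiles fused after GFP, lentivirally expressed, FACS-sorted into six equal bins by GFP/DsRed ratio, decoded by Illumina sequencing, PSI is the read-weighted mean bin number.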

| Sequence | protein stability index [1] | protein stability index [2] | protein stability index (treatment: DMSO, c terminus: native) | protein stability index (treatment: MLN4924 1 uM, 8 h, c terminus: native) |
| --- | --- | --- | --- | --- |
| ANLTPNVGGYFVDKFVATMYHYLQ [P3H4] | 2.38 ± 0.69 | 2.23 ± 0.32 |  |  |
| PAPTTTTATREEASTSLPTKPTQG [CLPTM1] | 5.54 ± 0.19 | 5.57 ± 0.14 |  |  |
| IKLREYEAALNSKDAALATALGDK [LMNB1] | 4.076 ± 0.039 | 4.38 ± 0.15 |  |  |
| ELPNIKREISETEAKALLKERQKK [TFE3] | 3.26 ± 0.7 | 4.19 ± 0.57 |  |  |
| YRQWHAKIFVENLRRQKSLRLEWE [IQUB] | 2.29 ± 0.54 | 1.87 ± 0.28 |  |  |
| ISLHPFNPWNWGKLAEAYLNLGPA [C8orf76] | 2.23 ± 1.1 | 2.18 ± 0.77 |  |  |
| KLTQRLEEMTQRMEALENRLRYR [MATN2] |  |  | 2.7 ± 0.51 | 2.79 ± 0.34 |
| YMSQVLEKEMKAQEQRLGIRISMS [GMPPB] | 2.38 ± 0.094 | 2.74 ± 0.42 |  |  |
| NLIYRSTRHLKRLALMIQSSGNTV [TMEM192] | 2.93 ± 0.43 | 2.67 ± 0.42 |  |  |
| KKSSRNIFSIVFVFFVCFVPYHIA [P2RY14] | 3.31 ± 1 | 3.53 ± 0.15 |  |  |
| SAETSGGLLICLPREQAARFCSEI [SEPHS2] | 2.31 ± 0.27 | 2.18 ± 0.26 |  |  |
| LRKRKEIREDRDRARLDSMVLLIM [DLC1] | 2.08 ± 0.51 | 2.17 ± 0.34 |  |  |
| MLLGVPRLRQLKVRNDSCVVHEDF [PKD2L1] | 2.46 ± 0.33 | 2.52 ± 0.32 |  |  |
| IVATLLILDICEDNVPDPKDVKER [TMEM175] | 2.46 ± 0.67 | 2.49 ± 0.37 |  |  |
| MPVQLTSRREIRKIMGVEEEDDDD [ANKRD40] | 5.62 ± 0.19 | 5.57 ± 0.13 |  |  |
| FQLPERGSRLCLYEDGTELTEDYF [DFFB] | 3.71 ± 0.44 | 3.7 ± 0.47 |  |  |
| STSLSFLDSCNSLTPKSTPVKTLP [MYBL2] | 3.9 ± 0.13 | 3.97 ± 0.36 |  |  |
| VNEFGMSGEDPTAAAPVAEVPTAA [CLPTM1] | 5.49 ± 0.26 | 5.39 ± 0.19 |  |  |
| LKLYYRRLFPYSQYYRWLNYGGVI [PRIM1] | 2.07 ± 0.7 | 2.6 ± 1.2 |  |  |
| AVVRLNKKIYEAKRFTDAGFEHYD [CDC14A] | 2.54 ± 0.38 | 2.52 ± 0.25 |  |  |
| IFEDRIRGIDIIKWMERYLRDKTV [TRAF3IP2] | 2.02 ± 0.56 | 1.99 ± 0.23 |  |  |
| QTSAFARQPRDELERVRVSCTIIF [TMEM175] | 2.46 ± 0.55 | 2.62 ± 0.61 |  |  |
| VFFFIFFVQDVLFVLQAIGIPGWG [SCAMP3] | 3.44 ± 0.83 | 2.93 ± 0.71 |  |  |

| Sequence | protein stability index [1] | protein stability index [2] | protein stability index (treatment: DMSO, c terminus: native) | protein stability index (treatment: MLN4924 1 uM, 8 h, c terminus: native) |
| --- | --- | --- | --- | --- |
| TEFKELDGLREALANLRGLSEEER [CCDC89] | 5.05 ± 0.28 | 4.85 ± 0.28 |  |  |
| VTSQATLLTITKAHSNAISNCCFT [WDR88] | 2.3 ± 0.55 | 2.18 ± 0.28 |  |  |
| LALCQRYYHRGHVDPANDTFDIDP [MCOLN1] | 3.11 ± 0.13 | 3.23 ± 0.29 |  |  |
| VYFKRFYARYSLKSIDPVLMAPTC [CCNC] | 3.11 ± 1.3 | 2.13 ± 0.32 |  |  |
| ESQVKSLCEKAKEILTKESNVQEV [PPP2CA] | 5.45 ± 0.11 | 5.18 ± 0.18 |  |  |
| CICGFTHDDGYMICCDKCSVWQHI [KMT2E] | 3.19 ± 0.39 | 3.29 ± 0.41 |  |  |
| HGVDLSALRGAAVDEYFRQPVVDT [CARM1] | 4.13 ± 0.41 | 4.29 ± 0.56 |  |  |
| QWIEVDARRLTRFTGVITQGRNSL [CPXM2] | 2.91 ± 0.6 | 2.52 ± 0.17 |  |  |
| LRNNQISHKGAEELALALKGNTTL [LRRC45] | 3.92 ± 0.14 | 4.05 ± 0.21 |  |  |
| MEMTRPTPPHLTSAMAENILAAAC [NOL4L] | 3.38 ± 0.3 | 3.18 ± 0.34 |  |  |
| CIFDKFECVWNGSDSVIMTGSYNN [PPP2R2B] | 2.27 ± 0.34 | 2.21 ± 0.14 |  |  |
| VLYTDKTYAMGHLIQRKKVHVFGD [TNFSF13B] | 2.28 ± 0.14 | 2.51 ± 0.41 |  |  |
| EAANLLIPAVGSSLSEALDLIESD [MYBL2] | 4.81 ± 0.14 | 4.72 ± 0.2 |  |  |
| DMRNSATFKSFEDRVGTIKSKVVG [TPD52L2] | 3.24 ± 0.16 | 3.61 ± 0.23 |  |  |
| EEDKRRKGEEVTPISAIRHEGKTD [EPB41L3] | 5.59 ± 0.23 | 5.66 ± 0.13 |  |  |
| FSDPSQSDPETKDFWLNMAALTEA [FCHO1] | 3.4 ± 0.47 | 3.79 ± 0.37 |  |  |
| SCNTWPSMPSYSSCTVTTVQPMDR [TBX5] | 3.11 ± 0.14 | 3.09 ± 0.19 |  |  |
| ASLAAAKKQLADETLLKVDLENRC [LMNB1] | 4.35 ± 0.12 | 4.46 ± 0.24 |  |  |
| VNSSIKTFFCPNDTYNDMATLFFN [CLCN6] | 2.13 ± 0.31 | 2.26 ± 0.14 |  |  |
| EINPPPHTMEEEEDDDWGEDTTEE [EIF5] | 5.52 ± 0.28 | 5.34 ± 0.48 |  |  |
| HLRPELRSQMQGPRTRARLGANEV [KLHL12] | 4.23 ± 0.043 | 4.22 ± 0.44 |  |  |
| TLNQLQSLQNSLECAMETTEEQTR [NECAB1] | 4.94 ± 0.13 | 4.97 ± 0.28 |  |  |
| LSNKNGKNVELKFVDSIRRQFEFS [TENT5C] | 2.56 ± 0.24 | 2.48 ± 0.42 |  |  |

| Sequence | protein stability index [1] | protein stability index [2] | protein stability index (treatment: DMSO, c terminus: native) | protein stability index (treatment: MLN4924 1 uM, 8 h, c terminus: native) |
| --- | --- | --- | --- | --- |
| KRKKLSTWKQELLKLMDRHKKDCA [ZNF75A] | 2.7 ± 0.15 | 2.83 ± 0.21 |  |  |
| LTRHTKKTHSQELMKESLQTGDLL [PLAGL1] | 4.35 ± 0.28 | 4.59 ± 0.12 |  |  |
| DTDKWIQKAPMTTVRGLHCMCTVG [KLHL13] | 2.32 ± 0.25 | 2.81 ± 0.35 |  |  |
| VQRLQAYTATEQEMQQQMSLGELC [TRIM14] | 4 ± 0.077 | 3.9 ± 0.21 |  |  |
| AAARAAQRRRRVENAGGSPSPEPA [RSAD1] | 5.25 ± 0.087 | 5.12 ± 0.44 |  |  |
| VFITILIIALIALSVGQYNCPGQY [CD69] | 2.6 ± 0.38 | 2.61 ± 0.57 |  |  |
| GPPAPVGPPHARISQHGDPLLSNT [EMID1] | 4.37 ± 0.24 | 4.55 ± 0.72 |  |  |
| IYNGGVEAVSTLLGAVAVFAVGYI [SLC19A2] | 2.37 ± 0.26 |  |  |  |
| RNTSWGVVQEPPGRASRFLQSISW [TLE6] | 2.47 ± 0.28 | 2.46 ± 0.3 |  |  |
| PNGSAAEPPTEAASREENQAGPEA [PALM] | 5.56 ± 0.35 | 5.4 ± 0.25 |  |  |
| RLEELTNRLASLQQENKVLKIELE [CCDC6] | 3.65 ± 0.23 | 3.78 ± 0.38 |  |  |
| LESLQDGAAESPYAYSNGIDYKTT [RAB40C] | 4.29 ± 0.34 | 4.5 ± 0.16 |  |  |
| MEQVHRGIKGLVRDSHGKGIPNAI [CPXM2] | 3.68 ± 0.56 | 4.35 ± 0.17 |  |  |
| KMLRKEAAARCVVLDCRPYLAFAA [DUSP5] | 2.77 ± 0.63 | 2.51 ± 0.44 |  |  |
| AECALVSLKEAEFYDKQLKVLLSG [ZFYVE21] | 2.86 ± 0.24 | 3.05 ± 0.48 |  |  |
| SSTGNTALTYACAGGYVDVVKVLL [ANKRD17] | 2.07 ± 0.55 | 2.23 ± 0.3 |  |  |
| SLMDLAIEEGFNPVQASQLEEEFD [NFE2L1] | 5.35 ± 0.35 | 5.49 ± 0.12 |  |  |
| SIPLERIHFDSYITCVSGAIVDLI [FBXO33] | 2.44 ± 0.42 | 2.26 ± 0.42 |  |  |
| GHSFCRPCLCLSWEEAQSPANCPA [TRIM43] | 3.47 ± 0.34 | 3.66 ± 0.29 |  |  |
| RMQALLIRERILGPSHPDTSYYIR [FEM1C] | 2.2 ± 0.17 | 2.18 ± 0.44 |  |  |
| LDKQAKLSRAYDGTTYLPGIVGLN [USP39] | 3.15 ± 0.39 | 3.1 ± 0.2 |  |  |
| GGCYFGPDVTQQLLQKYNMQFLIR [PPEF2] | 1.92 ± 0.29 | 2.2 ± 0.37 |  |  |
| PPLTRQIAVKTLGIGKNVICDRTA [GFOD1] | 3.71 ± 0.22 | 3.92 ± 0.082 |  |  |

| Sequence | protein stability index [1] | protein stability index [2] | protein stability index (treatment: DMSO, c terminus: native) | protein stability index (treatment: MLN4924 1 uM, 8 h, c terminus: native) |
| --- | --- | --- | --- | --- |
| WMLTRKQFGLLSFFFAVLHAIYSL [STEAP1] | 1.95 ± 0.54 | 2.1 ± 0.27 |  |  |
| WQDSDTVKLLVDLELSYGFENGQK [TOR1AIP2] | 2.7 ± 0.37 | 2.65 ± 0.49 |  |  |
| ANYTCVAMSTLGVIEAIAQITVKA [PTPRD] | 2.63 ± 0.16 | 3.29 ± 0.93 |  |  |
| VGYTALVGSDAESWGWDLGRSRLY [SPSB4] | 2.21 ± 0.076 | 2.56 ± 0.48 |  |  |
| FKYINTVISCTIFIVGMVGNATLL [EDNRA] | 3.56 ± 0.57 | 2.89 ± 0.61 |  |  |
| FQDKRNLYLIMEFLPGGDMMTLLM [STK38L] | 3.34 ± 0.31 |  |  |  |
| NVTRHQAECALNERGVEGDFLIRD [NCK2] | 4.35 ± 0.27 | 4.5 ± 0.31 |  |  |
| LGGEDGEKELISMECYDIYSKTWT [GAN] | 3.31 ± 0.45 | 3.19 ± 0.24 |  |  |
| ETIKDLMRQFLRGLDFLHANCIVH [CDK4] | 3.06 ± 0.64 | 3.23 ± 0.56 |  |  |
| YIYYNEKYGGPNHHLPLPDNWKSQ [CPN1] | 2.46 ± 0.75 | 2.35 ± 0.37 |  |  |
| TFTASFSGKVFPFFAVWKKGSCLT [TRIM15] | 2.46 ± 0.47 | 2.34 ± 0.42 |  |  |
| YCESHAKARVKPPEGYDVVAVYPN [PDLIM4] | 3.74 ± 0.38 | 4.08 ± 0.25 |  |  |
| RGGDGEVASAPLQPPVPSLSEVKP [TRADD] | 5.34 ± 0.36 | 5.04 ± 0.58 |  |  |
| LLYWGIAEDHLDGCCKRRYLQKIE [KCNG1] | 1.95 ± 0.33 | 2.3 ± 0.12 |  |  |
| GEQPQFWSKTQVLDWISYQVEKNK [ELF3] | 3.02 ± 0.13 | 3.29 ± 0.33 |  |  |
| SYVHILSAILQFPSTLGRCKAFST [OR10K2] | 3.38 ± 0.61 | 3.01 ± 0.63 |  |  |
| DDWEDDYDYPEEEQLSGAGYRVSA [EID1] | 4.9 ± 0.29 | 5.04 ± 0.21 |  |  |
| FVRGDHRDNSPFDGPGGNLAHAFQ [MMP1] | 2.34 ± 0.6 | 3.06 ± 0.29 |  |  |
| AQAIDFINRCSVLRQLGCKDGKNW [SPOPL] | 2.29 ± 0.24 | 2.58 ± 0.42 |  |  |
| PSHYDVQDRFRIELSEEGAEGRVV [MOSPD3] | 4.63 ± 0.11 | 4.79 ± 0.33 |  |  |
